Results: patent publication US20250206836A1 (ONA THERAPEUTICS S L, published 2025)

Key:
[1] = target: T1, nonhuman primate CD36 (on HEK 293 cells) (cynomolgus monkey / rhesus macaque, UniProt P16671 2-472 (human entry)); assay: FACS, HEK 293 cells transiently overexpressing CD36;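 note: antibody binding to transfected cells detected by flow cytometry with a fluorescent anti-human secondary antibody, EC50 from a four-parameter sigmoidal fit of mean fluorescence intensity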
T1 construct: also called non-human primate CD36 (cynomolgus)
Method: (§1) After transiently transfecting the HEK 293 cells with a CD36 expression construct, cells were treated with three-fold serial dilution of each candidate antibody (10 dilutions starting at 500 nM). […] After incubation with the cells, an anti-human fluorescently labelled antibody was added to the cell media, allowed to incubate further, and the unbound antibody was washed off of the cells. Subsequently, the cells were subjected to FACS analysis to determine antibody binding to the cells. The results were fitted to a sigmoidal titration curve. Using a nonlinear regression model, the EC₅₀ values for each antibody were calculated from the GeoMFI and MFI values using the log(agonist) versus response (four parameters) fitting on the data transformed according to X=Log[X] in GraphPad PRISM.

[2] = target: T2, human CD36 (on HEK 293 or SCC25 cells) (human, UniProt P16671 2-472); assay: as above
T2 construct: Overexpressed transiently or stably on HEK 293 cells, or stably on SCC25 cells; also called huCD36
Method: as §1

[3] = target: T3, mouse CD36 (on HEK 293 cells) (mouse, UniProt Q08857 1-472); assay: as above
T3 construct: also called Murine CD36
Method: as §1

[4] = target: T4, purified biotin-tagged human CD36 (human, UniProt P16671 30-439, limits assumed, biotin tag, site not stated); assay: AlphaScreen competition; competitor FA6-152 on acceptor beads
[5] = target: T2, human CD36 (on HEK 293 or SCC25 cells); assay: cell-based or functional assay
[6] = target: T2, human CD36 (on HEK 293 or SCC25 cells); assay: cell-based or functional assay; remark: listed apart in the source
[7] = target: T4, purified biotin-tagged human CD36; assay: AlphaScreen competition; competitor 1G04 on acceptor beads;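 note: streptavidin donor beads excited at 680 nm release singlet oxygen, and the light signal needs a nearby acceptor bead, with 30 min donor-bead incubation at 25 °C in the dark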
Method: (§2) This was done using the AlphaScreen® bead-based microplate assay. […] AlphaLISA® Streptavidin Donor Beads were then added and the mix incubated for 30 min at 25° C. in the dark. The donor bead contains a photosensitizer, which upon excitation by light at 680 nm, converts oxygen (O₂) into an excited form, singlet oxygen. Singlet oxygen molecules have a reduced lifetime (4 microseconds half-life) and can diffuse approximately 200 nm in solution before falling back to ground state. In the absence of acceptor beads, the singlet oxygen molecules fall back to ground state without producing any light signal.

[8] = target: T2, human CD36 (on HEK 293 or SCC25 cells); assay: cell-based or functional assay; remark: listed apart in the source
human CD36 (His-tagged) = target: T5, human CD36 (His-tagged) (human, UniProt P16671 30-439); assay: SPR (Biacore T200), His-captured CD36, bivalent analyte model
T5 construct: not shown: His tag

[9] = target: T2, human CD36 (on HEK 293 or SCC25 cells); assay: FACS, SCC25 cells stably overexpressing human CD36
Method: as §1

[10] = target: T2, human CD36 (on HEK 293 or SCC25 cells); assay: FACS, SCC25 cells stably expressing human CD36
Method: SCC25 cells were treated with 10-fold serial dilution of each antibody (5 dilutions starting at 100 nM). After incubation with the cells, an anti-human fluorescently labelled antibody was added to the cell media, allowed to incubate further, and the unbound antibody was washed off of the cells. Subsequently, the cells were subjected to FACS analysis to determine antibody binding to the cells. The results were fitted to a sigmoidal titration curve. Using a nonlinear regression model, the EC₅₀ values for each antibody were calculated from the GeoMFI and MFI values using the log(agonist) versus response (four parameters) fitting on the data transformed according to X=Log[X] in GraphPad PRISM.

[11] = target: T4, purified biotin-tagged human CD36; assay: AlphaScreen competition; competitor 11G04 on acceptor beads
Method: as §2
Throughout, for Percent Fatty Acid Uptake Inhibition: test concentration or dose not given here.

T1 sequence (P16671 other isoform, or with tags, fused parts or gaps limits assumed): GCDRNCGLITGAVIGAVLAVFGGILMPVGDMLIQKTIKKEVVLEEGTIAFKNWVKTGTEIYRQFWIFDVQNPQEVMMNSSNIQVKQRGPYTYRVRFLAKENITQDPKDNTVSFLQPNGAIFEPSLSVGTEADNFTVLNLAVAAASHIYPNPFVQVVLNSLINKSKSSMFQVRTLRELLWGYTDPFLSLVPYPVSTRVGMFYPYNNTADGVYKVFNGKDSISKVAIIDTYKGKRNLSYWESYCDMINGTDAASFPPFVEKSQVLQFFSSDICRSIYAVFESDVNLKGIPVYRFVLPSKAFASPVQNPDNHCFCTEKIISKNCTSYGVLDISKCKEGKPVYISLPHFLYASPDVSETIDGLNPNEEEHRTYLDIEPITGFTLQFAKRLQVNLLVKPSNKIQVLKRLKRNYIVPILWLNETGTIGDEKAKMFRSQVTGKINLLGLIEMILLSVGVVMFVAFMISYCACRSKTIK
T4 sequence (P16671 30-439 limits assumed): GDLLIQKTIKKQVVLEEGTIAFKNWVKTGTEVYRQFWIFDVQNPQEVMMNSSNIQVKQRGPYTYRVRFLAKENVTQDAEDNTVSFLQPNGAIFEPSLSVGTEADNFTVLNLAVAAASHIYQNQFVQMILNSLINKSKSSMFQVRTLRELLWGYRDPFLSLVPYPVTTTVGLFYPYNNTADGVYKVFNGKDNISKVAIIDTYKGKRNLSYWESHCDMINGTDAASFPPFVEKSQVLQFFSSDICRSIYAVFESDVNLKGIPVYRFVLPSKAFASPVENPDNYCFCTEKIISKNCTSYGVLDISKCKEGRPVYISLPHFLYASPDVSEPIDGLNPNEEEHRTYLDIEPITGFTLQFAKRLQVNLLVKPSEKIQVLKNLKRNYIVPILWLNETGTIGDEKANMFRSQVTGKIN
T5 sequence (P16671 30-439 limits assumed): as above
T3 sequence (Q08857 whole entry): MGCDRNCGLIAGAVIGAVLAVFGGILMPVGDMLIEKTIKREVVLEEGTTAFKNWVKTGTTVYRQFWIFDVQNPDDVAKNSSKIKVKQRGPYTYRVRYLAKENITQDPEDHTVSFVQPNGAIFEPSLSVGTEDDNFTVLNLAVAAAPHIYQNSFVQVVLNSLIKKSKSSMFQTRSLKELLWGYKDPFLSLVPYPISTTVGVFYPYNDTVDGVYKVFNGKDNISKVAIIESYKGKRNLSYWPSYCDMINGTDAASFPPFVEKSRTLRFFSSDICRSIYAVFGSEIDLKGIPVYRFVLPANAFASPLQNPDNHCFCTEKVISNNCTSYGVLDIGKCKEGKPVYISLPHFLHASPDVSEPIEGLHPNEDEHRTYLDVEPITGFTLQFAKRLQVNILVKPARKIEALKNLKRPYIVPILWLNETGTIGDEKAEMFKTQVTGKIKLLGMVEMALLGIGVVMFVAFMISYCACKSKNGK
T2 sequence (P16671 2-472 limits assumed): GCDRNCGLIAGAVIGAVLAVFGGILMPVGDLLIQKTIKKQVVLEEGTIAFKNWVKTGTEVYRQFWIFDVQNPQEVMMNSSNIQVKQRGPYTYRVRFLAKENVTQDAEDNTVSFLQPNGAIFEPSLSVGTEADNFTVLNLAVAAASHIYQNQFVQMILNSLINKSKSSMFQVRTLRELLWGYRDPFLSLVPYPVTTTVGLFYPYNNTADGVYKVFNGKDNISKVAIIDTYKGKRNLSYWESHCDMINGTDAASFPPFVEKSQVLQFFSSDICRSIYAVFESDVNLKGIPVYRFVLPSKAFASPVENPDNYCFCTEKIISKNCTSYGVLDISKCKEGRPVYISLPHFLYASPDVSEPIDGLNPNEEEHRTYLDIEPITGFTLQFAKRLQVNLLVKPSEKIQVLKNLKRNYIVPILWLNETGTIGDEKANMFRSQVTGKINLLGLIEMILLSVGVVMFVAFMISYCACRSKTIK

Binder | EC50 [1] | EC50 [2] | EC50 [3] | EC50 [4] | Percent Fatty Acid Uptake Inhibition [5] | IC50 of oxLDL uptake inhibition (DiI-oxLDL, SCC25 cells) [6] | EC50 [7] | IC50 of fatty acid uptake inhibition (BODIPY FL C16, HEK hCD36 cells) [8] | Kd (human CD36 (His-tagged)) | koff (human CD36 (His-tagged)) | kon (human CD36 (His-tagged)) | EC50 [9] | EC50 [10] | EC50 [11]
1G07 (antibody, V domains shown, also called SPLE) VH: QVQLKQSGADLVRPGASVKLSCKASGYTFTDYYINWVKQRPGQGLEWIARIYPGSGNTYYNEKFKGKATLTAEKSSSTAYMQLSSLTSEDSAVYFCARGIGGGFGMDYWGQGTSVTVSS VL: SIVMTQTPKFLLVSAGDRITITCKASQSVSDDVAWYQQKPGQSPKLLIYYASNRYTGVPDRFTGSGYGTDFTFTISTVQAEDLAVYFCQQDYSSPLTFGAGTKLEIK | – | – | – | – | – | – | – | – | – | – | – | – | 0.47 nM | –
4G04 (antibody, human IgG1, V domains shown, Chimeric: mouse variable regions on human IgG1 LALA (L234A/L235A); also called 04G04; 004G04) VH: QVQLQQPGSELRSPGSSVKLSCKDFDSEVFPIAYMTWVRQKPGHGFEWIGDILPSIGGTIYGEKFEDKATLDADTVSNTAYLELNSLTSEDSAIYYCARDYYGSSYGYFDVWGAGTAVTVSS VL: DIVLTQSQKFMSTSVGDRVSVTCKASQNVGTNVAWYQQKPGQSPKALIYSASYRYSGVPDRFTGSGSGTDFTLTISNVQSEDLAEYFCQQYNSYPYTFGGGTKLEIK | 27.7 nM | – | – | 9.89 nM | – | – | 0.11 nM | 483 nM | – | – | – | – | – | –
19G04 (antibody, human IgG1, V domains shown, Chimeric: mouse variable regions on human IgG1 LALA (L234A/L235A); also called 019G04) VH: EVQLQQSGPELVKPGASVKISCETSGHTFTEYTMHWVKQSHGKSLEWIGGIYPNNGATKYNQKFKGKATLTVDKSSSTAYMELRSLTSEDSAVYYCARDRYDVWFAYWGQGTLVTVSA VL: ETTVTQSPASLSMAIGEKVTIRCITSTDIDDDMNWYQQKPGEPPKLLISEGNTLRPGVPSRFSSSGYGTDFIFTIENMLSEDVADYYCLQSDNLPLTFGAGTKLELK | 5.45 nM | 1.92 nM | 22.5 nM | – | 53.3% | – | – | 0.05 nM | – | – | – | 0.75 nM | – | 5.23 nM
6G04 (antibody, human IgG1, V domains shown, Chimeric: mouse variable regions on human IgG1 LALA (L234A/L235A); also called 06G04; 006G04) VH: QVQLQQSGAELVMPGASVKMSCKASGYTFTDYWMHWVKQRPGQGLEWIGSIDTSDSYTTYSQKFKGKATLTVDESSSTAYMELARLTSEDSAIYYCVRGEDYEGTWFAYWGQGTLVTVSA VL: ETTVTQSPASLSVATGEKVTIRCITSTDIDDDMNWYQQKPGEPPKLLISEGNTLRPGVPSRFSSSGYGTDFVFTIENTLSEDVADYYCLQSDNMPLTFGAGTKLELK | 4.85 nM | 0.53 nM | 1.51 nM | 1040 nM | 35.1% | 0.27 nM | 1.15 nM | 0.1 nM | 0.51 nM | 0.0002 s⁻¹ | 390000 M⁻¹ s⁻¹ | 0.56 nM | – | –
16G04 (antibody, human IgG1, V domains shown, Chimeric: mouse variable regions on human IgG1 LALA (L234A/L235A); also called 016G04) VH: EVQLQQSGPELVKPGASVKISCKTSGYTFTEYTMHWVKQSHGKSLEWIGGINPYNGGTAYNQKFKNKATLTVDISSNTAFMEFRSLTSEDSAVYYCASDYFYGDANPWFAYWGQGTLVTVSA VL: ETTVTQSPASLSMAIGEKVTIRCITSTDIDDDMNWYQQKPGEPPKLLISEGNTLRPGVPSRFSSSGYGTDFVFTIENMLSEDVADYYCLQSDNLPLTFGAGTKLELK | 5.4 nM | 1.36 nM | 18.2 nM | – | 45.2% | – | 9.19 nM | 0.15 nM | – | – | – | 0.57 nM | – | 3.73 nM
30G04 (antibody, human IgG1, V domains shown, Chimeric: mouse variable regions on human IgG1 LALA (L234A/L235A); also called 030G04) VH: EVQLVESGGGVVQPGESLKLSCESNEYEFPSHDMSWVRKTPERRLELVAAINSDGAITYYPDTMERRFIISRDNTKKTLYLQMSSLKSEDTAMYYCARHGQTGTWFAYWGQGTLVTVSA VL: ETTVTQSPASLSMAIGEKVTIRCITSTDIDDDMNWYQQKPGEPPKLLISEGNTLRPGVPSRFSSSGYGTDFVFTIENMLSEDVADYYCLQSDNLPLTFGAGTKLELK | 1.63 nM | 0.32 nM | 0.96 nM | – | 43.5% | – | – | 0.8 nM | – | – | – | 0.22 nM | – | 0.65 nM
15G04 (antibody, human IgG1, V domains shown, Chimeric: mouse variable regions on human IgG1 LALA (L234A/L235A); also called 015G04) VH: QVQLQQSGPELVKPGASVKISCKASGYTFSTSWMNWVKQRPGQGLEWIGRIYPGDGDTNYNGKFKGKATLTADTSSSTAYMQLSSLTSVDSAVYFCAREVYYGGYEDYGMDYWGQGTSVTVSS VL: DVVMTQTPLSLPVSLGDQASISCRSSQSLLHTNVNTYLHWYLQKPGQSPKLLIYKVSNRFSGVPDRFSGSGSGTDFTLKISRVEAEDLGVYFCSQSTHVPYTFGGGTKLEIK | 2.2 nM | – | – | 5.65 nM | – | – | 0.41 nM | > 1000 nM | – | – | – | – | – | –

Continued by falling EC50 [1], values first:

EC50 [1] | EC50 [2] | EC50 [3] | EC50 [4] | Percent Fatty Acid Uptake Inhibition [5] | IC50 of oxLDL uptake inhibition (DiI-oxLDL, SCC25 cells) [6] | EC50 [7] | IC50 of fatty acid uptake inhibition (BODIPY FL C16, HEK hCD36 cells) [8] | Kd (human CD36 (His-tagged)) | koff (human CD36 (His-tagged)) | kon (human CD36 (His-tagged)) | EC50 [9] | EC50 [10] | EC50 [11] | Binder
1.06 nM | 0.31 nM | 5.93 nM | 46.8 nM | 52.8% | 0.26 nM | 0.17 nM | 0.2 nM | 1.5 nM | 0.0037 s⁻¹ | 2.4e+06 M⁻¹ s⁻¹ | 0.26 nM | – | – | 13G04 (antibody, human IgG1, V domains shown, Chimeric: mouse variable regions on human IgG1 LALA (L234A/L235A); also called 013G04) VH: QVQLQQSGAELVRPGASVKLSCKASGYTFTSYWMNWVKQRPGQGLEWIGMIDPSDNETHYNQMFKDKATLTVDKSSSTAYMQLSSLTSEDSAVYYCARSDYGNGYSFYLDVWGAGTTVTVSS VL: DIVLTQSPASLAVSLGQRATISCRASESVDSYGNSFMHWYQQKPGQPPKLLIYRASNLESGIPARFSGSGSRTDFTLTINPVEADDVATYYCQQSNEDPWTFGGGTKLEIK
0.63 nM | 0.91 nM | – | 1.8 nM | – | – | 0.15 nM | – | – | – | – | – | – | – | 27G04 (antibody, human IgG1, V domains shown, Chimeric: mouse variable regions on human IgG1 LALA (L234A/L235A)) VH: EVQLQQSGAELLKPGASVKISCKTTGYTFSNYWIEWVKQRPGHGLEWIGEILPGSGSPKYNEKFKGKATLTADTSSNTAFMQLSSLTSEDSAVYYCAPFILENYFDYWGQGTTLTVSS VL: DIQMTQSHKFMSTSVGDRVSITCKASQDVSTAVAWYQQKPGQSPKLLIYSASYRYTGVPDRFTGSGSGTDFTFTISSVQAEDLAVYYCQQHYSTPRTFGGGTKLEIK
0.33 nM | 0.35 nM | 0.69 nM | – | – | 0.35 nM | 1.45 nM | 0.18 nM | – | – | – | – | – | 1.05 nM | 38G04 (antibody, human IgG1, V domains shown, Chimeric: chicken variable regions on human IgG1 LALA (L234A/L235A); also called 038G04) VH: AVTLDESGGGLQTPGRALSLVCKASGFTFSSYNMFWVRQAPGKGLEWVAGIDDDGSFTLYGAAVKGRATISRDNGQSTVRLQLNNLRAEDTGTYYCARDSGAVSIDAWGHGTEVIVSS VL: ALTQPSSVSANPGETVKITCSGGDSDYGWYQQKSPGSAPVTVIYQNDKRPSDIPSRFSGSASGSTATFTITGVQAEDEAVYYCGGWDGSYDGAVFGAGTTLTVL
0.32 nM | 0.36 nM | – | 33.8 nM | – | – | 0.37 nM | 0.08 nM | – | – | – | – | – | – | 29G04 (antibody, human IgG1, V domains shown, Chimeric: mouse variable regions on human IgG1 LALA (L234A/L235A); also called 029G04) VH: QVQLQQSGTELVKPGASVKLSCKASGYTFTSYWMHWVKQRPGQGLEWIGEIDPSDSHTNYNQKFKGKATLTVDKSSSTAYMQLSSLTSEDSAVYYCAPIYYGLDNWGQGTTLTVSS VL: DIVLTQSQKFMSTSVGDRVSVTCKASQNVGTNVAWYQQKPGQSPKALIYSASYRYSGVPDRFTGSGSGTDFTLTISNVQSEDLAEYFCQQYNSYPLTFGAGTKLELK
